The results in this text go back to US20250136938A1.

This assay addresses KRAS^G12V-reactive TCR (Pt. 4148). The experiment in a line: tetramer staining, flow cytometry on 41BB-enriched CD8 memory T cells of Pt. 4148.

For the substance “HLA-A*11:01-KRAS^G12V 9-mer tetramer (from UniProt P01116 8-16; P61769 21-119) (peptide-MHC)”, the percent of memory CD8 cells in the culture bound by tetramer is 15.9%.
